Measurements taken from US12559863B2, “Macrocyclic modulators of disease associated protein misfolding and aggregation” (RESQ BIOTECH, priority 2017, dated 2026).

Molecular target: T1, Aβ42-GFP (Homo sapiens, UniProt P05067)
T1 construct: a chimeric fusion of the human Aβ(1-42) peptide (Aβ42) with GFP; expressed in transfected cells; host or cells: E. coli BL21(DE3)
Test: High-throughput sequencing of pSICLOPPS vectors isolated after bacterial sorting for enhanced Aβ42-GFP fluorescence
Conditions: for Reads/Total TXXXR reads (%): relative to total TXXXR reads; for Normalized read number (%): Table 3, cyclo-TXXR tetrapeptides
Description: On the other hand, very few bioactive sequences resembling AβC5-34 should exist. […] The peptide-encoding vectors contained in these clones were isolated and the peptide-encoding region of approximately 5.6 million of these plasmids was sequenced using an Ion Torrent high-throughput sequencing platform. […] First, pentapeptides were the dominant peptide species within the sorted pool (FIG. 12D), in agreement with previous observations (FIG. 8G). Second, the most prevalent motif among the selected pentapeptide sequences were TXXXR pentapeptides (˜47% of the selected pentapeptide-encoding pSICLOPPS plasmids; ˜42% of the unique selected pentapeptide sequences) (Table 1), in accordance with previous observations (FIG. 8G). […] At position 2, Thr, Ala, and Val were preferred, while aromatic residues (Phe, Trp, Tyr) were completely excluded from the selected TXXXR peptide pool, in full agreement with our site-directed mutagenesis studies. At the highly variable position 3, the complete absence of the negatively charged amino acids Glu and Asp among the selected sequences was notable (FIG. 12E). […] It is noteworthy, that Lys and Gln residues were practically absent from all positions, while the β sheet-breaking amino acid Pro that is typically included in designed peptide-based inhibitors of amyloid aggregation appeared with strikingly low frequencies (FIG. 12E).
Electrocompetent E. coli BL21(DE3) cells (Novagen, USA) carrying either the expression vector pETSOD1(A4V)-GFP, which produces SOD1(A4V)-GFP under control of the strong bacteriophage T7 promoter, or pETAβ42-GFP, which produces Aβ42-GFP under control of the T7 promoter, were co-transformed with the combined pSICLOPPS-NuX1X2X3-X5 vector library. Approximately 10^8 transformants carrying both the vector library and either pETSOD1(A4V)-GFP or pETAβ42-GFP vectors were harvested, pooled together, and grown in Luria-Bertani (LB) liquid medium containing either 0.005% (pETSOD1(A4F)-GFP) or 0.002% (pETAβ42-GFP) L-arabinose—the inducer of cyclic peptide production—at 37° C. with shaking. When the optical density at 600 nm (OD600) of the bacterial culture was about 0.5, 0.01 (pETSOD1(A4F)-GFP) or 0.1 (pETAβ42-GFP) mM isopropyl-β-D-thiogalactoside (IPTG) was added to the medium to induce overexpression of the reporter. […] The isolated cells were re-grown and screened for additional rounds in an identical manner until the desired enrichment in high-fluorescence clones was achieved.
For the characterization of the initial libraries, a combined pSICLOPPS-NuX1X2X3-X5 vector library was prepared containing approximately equal amounts of each one of the tetra-, penta- and hexapeptide sub-libraries. These samples were digested with NcoI and BsrGI and the resulting ˜250 bp product that contained the variable peptide-encoding region was isolated. High-throughput sequencing analysis was performed using an Ion Torrent high-throughput sequencing platform. From the obtained data, all the sequences with mismatches outside of the variable peptide-encoding region were removed, and only the 12-, 15- or 18-bp-long peptide-encoding sequences were subjected to further analysis. The libraries of the selected cyclic peptides that enhance either SOD1(A4V)-GFP or Aβ42-GFP fluorescence were sequenced in a similar manner, with the only exception being that all sequences including stop codons were discarded from subsequent analysis.

[1] = after the second round of bacterial sorting
[2] = after the second round of bacterial sorting, relative to total pentapeptide reads
[3] = after the second round of bacterial sorting, relative to total peptide reads
[4] = high-throughput sequencing of isolated pSICLOPPS-NuX1X2X3-X5 vectors after the second round of bacterial sorting for enhanced Aβ42-GFP fluorescence, selected cyclo-TXXXR pentapeptides
[5] = after the second round of bacterial sorting for enhanced Aβ42-GFP fluorescence
[6] = after the second round of bacterial sorting for enhanced Aβ42-GFP fluorescence, relative to total pentapeptide reads
[7] = after the second round of bacterial sorting for enhanced Aβ42-GFP fluorescence, relative to total peptide reads
[8] = pSICLOPPS-NuX1X2X3-X5 vectors after the second round of bacterial sorting for enhanced Aβ42-GFP fluorescence
[9] = Table 4, hexapeptides, after second round of sorting

Substance | Reads/Total TXXXR reads (%) [1] | Reads/Total pentapeptide reads (%) [2] | Reads/Total peptide reads (%) [3] | Number of reads [4] | also measured
AβC5-89 (TATDR; cyclic) | 0.420% | 0.197% | 0.176% | 7,984 | –
AβC5-270 (TATWR; cyclic) | 0.014% | 0.007% | 0.006% | 266 | –
AβC5-304 (TSINR; cyclic) | 0.010% | 0.004% | 0.004% | 182 | –
AβC5-348 (TTLTR; head-to-tail cyclic) | 0.006% | 0.003% | 0.003% | 119 | –
AβC5-7 (TTLHR; cyclic pentapeptide) | 7.046% | 3.301% | 2.958% | 134,018 | –
AβC5-364 (TTMAR; head-to-tail cyclic) | 0.006% | 0.003% | 0.002% | 106 | –
AβC5-147 (TAMHR; cyclic) | 0.085% | 0.040% | 0.036% | 1,611 | –
AβC5-469 (TTIGR; cyclic pentapeptide) | – | – | – | – | Reads/Total TXXXR reads (%) [5]: 0.003%; Reads/Total pentapeptide reads (%) [6]: 0.001%; Reads/Total peptide reads (%) [7]: 0.001%; Number of reads [8]: 53
AβC5-321 (TTTFR; head-to-tail cyclic) | 0.008% | 0.004% | 0.003% | 148 | –
AβC5-463 (TVVDR; cyclic pentapeptide) | – | – | – | – | Reads/Total TXXXR reads (%) [5]: 0.003%; Reads/Total pentapeptide reads (%) [6]: 0.001%; Reads/Total peptide reads (%) [7]: 0.001%; Number of reads [8]: 54
AβC5-176 (TAGWR; cyclic) | 0.050% | 0.023% | 0.021% | 945 | –
AβC5-381 (TTHTR; head-to-tail cyclic) | 0.005% | 0.002% | 0.002% | 93 | –
AβC5-301 (TTTRR; cyclic) | 0.010% | 0.005% | 0.004% | 191 | –
TPVLVD [AβC6-48] | – | – | – | – | Reads/Total hexapeptide reads (%) (Table 4): 0.052%; Reads/Total peptide reads (%) (Table 4): 0.005%; Number of reads [9]: 236
AβC5-391 (TLLIR; head-to-tail cyclic) | – | – | – | – | Reads/Total TXXXR reads (%) [5]: 0.005%; Reads/Total pentapeptide reads (%) [6]: 0.002%; Reads/Total peptide reads (%) [7]: 0.002%; Number of reads [8]: 88
cyclo-SICPT [AβC5-216] | – | – | – | – | Reads/Total SASPT-like reads (%) (Table 2): 1.957%; Reads/Total pentapeptide reads (%) (Table 2): 0.013%; Reads/Total peptide reads (%) (Table 2): 0.011%; Number of reads (Table 2, after second round of sorting): 516
AβC5-264 (TSGAR; cyclic) | 0.015% | 0.007% | 0.006% | 282 | –
AβC5-248 (TTTHR; cyclic) | 0.018% | 0.008% | 0.007% | 339 | –
cyclo-TLWR (cyclic) [AβC4B-80] | – | – | – | – | Normalized read number (%): 0.2568%
AβC5-244 (TTRVR; cyclic) | 0.019% | 0.009% | 0.008% | 366 | –

Substance | Reads/Total TXXXR reads (%) [1] | Reads/Total pentapeptide reads (%) [2] | Reads/Total peptide reads (%) [3] | Number of reads [4] | also measured
AβC5-405 (TTSHR; head-to-tail cyclic) | – | – | – | – | Reads/Total TXXXR reads (%) [5]: 0.004%; Reads/Total pentapeptide reads (%) [6]: 0.002%; Reads/Total peptide reads (%) [7]: 0.002%; Number of reads [8]: 78
TPARFD [AβC6-78] | – | – | – | – | Reads/Total hexapeptide reads (%) (Table 4): 0.012%; Reads/Total peptide reads (%) (Table 4): 0.001%; Number of reads [9]: 55
AβC5-415 (TTTCR; cyclic pentapeptide) | – | – | – | – | Reads/Total TXXXR reads (%) [5]: 0.004%; Reads/Total pentapeptide reads (%) [6]: 0.002%; Reads/Total peptide reads (%) [7]: 0.002%; Number of reads [8]: 74
AβC5-252 (TVIWR; cyclic) | 0.017% | 0.008% | 0.007% | 331 | –
AβC5-440 (TATGR; cyclic pentapeptide) | – | – | – | – | Reads/Total TXXXR reads (%) [5]: 0.003%; Reads/Total pentapeptide reads (%) [6]: 0.002%; Reads/Total peptide reads (%) [7]: 0.001%; Number of reads [8]: 61
AβC5-479 (TTTVR; cyclic pentapeptide) | – | – | – | – | Reads/Total TXXXR reads (%) [5]: 0.003%; Reads/Total pentapeptide reads (%) [6]: 0.001%; Reads/Total peptide reads (%) [7]: 0.001%; Number of reads [8]: 50
cyclo-TTRR (cyclic) [AβC4-11] | – | – | – | – | Normalized read number (%): 1.2%
AβC5-291 (TTLDR; cyclic) | 0.011% | 0.005% | 0.005% | 213 | –
AβC5-275 (TAHVR; cyclic) | 0.013% | 0.006% | 0.005% | 249 | –
TVTWFD [AβC6-6] | – | – | – | – | Reads/Total hexapeptide reads (%) (Table 4): 3.778%; Reads/Total peptide reads (%) (Table 4): 0.377%; Number of reads [9]: 17,100
AβC5-239 (TTMHR; cyclic) | 0.020% | 0.009% | 0.008% | 384 | –
AβC5-472 (TMYAR; cyclic pentapeptide) | – | – | – | – | Reads/Total TXXXR reads (%) [5]: 0.003%; Reads/Total pentapeptide reads (%) [6]: 0.001%; Reads/Total peptide reads (%) [7]: 0.001%; Number of reads [8]: 51
AβC5-146 (TTWSR; cyclic) | 0.085% | 0.040% | 0.036% | 1,612 | –
AβC5-245 (TTRFR; cyclic) | 0.019% | 0.009% | 0.008% | 364 | –
TPGLVD [AβC6-58] | – | – | – | – | Reads/Total hexapeptide reads (%) (Table 4): 0.031%; Reads/Total peptide reads (%) (Table 4): 0.003%; Number of reads [9]: 142
TLGWLD [AβC6-42] | – | – | – | – | Reads/Total hexapeptide reads (%) (Table 4): 0.068%; Reads/Total peptide reads (%) (Table 4): 0.007%; Number of reads [9]: 307
AβC5-459 (TTAAR; cyclic pentapeptide) | – | – | – | – | Reads/Total TXXXR reads (%) [5]: 0.003%; Reads/Total pentapeptide reads (%) [6]: 0.001%; Reads/Total peptide reads (%) [7]: 0.001%; Number of reads [8]: 55
AβC5-105 (TVRWR; cyclic) | 0.287% | 0.134% | 0.120% | 5,450 | –
AβC5-94 (TVLFR; cyclic) | 0.391% | 0.183% | 0.164% | 7,442 | –
TLEYLW [AβC6-49] | – | – | – | – | Reads/Total hexapeptide reads (%) (Table 4): 0.051%; Reads/Total peptide reads (%) (Table 4): 0.005%; Number of reads [9]: 233
